Results reported in patent publication US20110008279A1, “Methods and Compositions Relating to Adhesins as Adjuvants” (priority 2005, published 2011).
Values joined by “and” are separate entries in the source; they are usually repeats but may differ in a detail not shown here. Equal entries are not always repeated. Where two headings read alike, the source gives them in different places.

Experiments:
[1] = target: specific NadA binding sites on monocytes (human)
[2] = target: high affinity binding sites for NadA on immature mo-DCs (human); test: flow cytometry of Alexa-NadA on mo-DCs, Scatchard plot
[3] = target: low affinity binding sites for NadA on immature mo-DCs (human); test: as above
[4] = target: high affinity binding sites for NadA on immature mo-DCs (human); test: flow cytometry of Alexa-NadA on mo-DCs, Scatchard analysis
[5] = target: low affinity binding sites for NadA on immature mo-DCs (human); test: as above
[6] = target: specific NadA binding sites on monocytes (human); test: NadA-I125 binding to monocytes, Scatchard plot; value counted on the homo-trimer
[7] = target: NadA-specific binding sites on macrophage (human); test: flow cytometry (MFI), Alexa-NadA displaced by unlabelled NadA on macrophages, 37° C
mo-DCs [8] = test: Expression of maturation markers on mo-DCs (flow cytometry); format: cell-based, human; settings: flagellin 10 μg/ml; for CD86 expression: LPS 0.1 μg/ml
Experimental: Reagents used were tested for low endotoxin contamination using the Limulus amoebocyte assay (Sigma). Dendritic cells were generated from human peripheral blood mononuclear cells (PBMC) as described previously. In brief, PBMC were isolated from buffy coats of healthy donors by Ficoll-Paque Plus density gradient centrifugation (Amersham Pharmacia Biotech AB). Separate monocyte and T-cell fractions were obtained from PBMCs by Percoll density gradient centrifugation (Amersham Pharmacia Biotech AB). […] DC were obtained by 6-d culture adherent monocytes in medium with 20 ng/ml IL-4 (5×10^6 units/mg, Peprotech) and 50 ng/ml GM-CSF (1×10^7 units/mg, Peprotech). Cytokines were added again on day 4 in RPMI-1640 medium supplemented with 10% FBS. […] After 24 h cells were harvested and analysed. Culture supernatants were collected frozen in liquid nitrogen and conserved at −80° C. for cytokine analysis.
After differentiation, DC were routinely stained with phycoerytrin conjugated monoclonal antibodies to human CD14, CD1a, CD83, CD86 (B7.2), CD80 (B7.1), MHC II (HLA-DR), purchased from BD-Pharminghen and Caltag. In parallel, cells were stained with the isotype matched control mAb. Cells were immunostained with the proper dilution of PE-conjugated anti human monoclonal antibodies at 4° C. for 30 min in 100 μl of phosphate-buffered saline pH 7.2 (PBS, GIBCO BRL) containing 1% FBS and 0.1% NaN3 (FACS buffer). After washing, propidium iodide was added to exclude dead cells and cell fluorescence intensities of the gated populations were measured with a EPICS XL-MCL (Coulter) flow cytometer and analyzed with EXPO 32ADC XL 3COLOR or WinMDI 2.8. software. Data were collected on 10000-20000 events.

mo-DCs [9] = test: Cytokine and chemokine secretion by mo-DCs (Bio-Plex, ELISA); format: cell-based, human; settings: after IFN-γ priming; flagellin 10 μg/ml, CpG 10 μg/ml, maximal LPS
Experimental: Reagents used were tested for low endotoxin contamination using the Limulus amoebocyte assay (Sigma). Dendritic cells were generated from human peripheral blood mononuclear cells (PBMC) as described previously. In brief, PBMC were isolated from buffy coats of healthy donors by Ficoll-Paque Plus density gradient centrifugation (Amersham Pharmacia Biotech AB). Separate monocyte and T-cell fractions were obtained from PBMCs by Percoll density gradient centrifugation (Amersham Pharmacia Biotech AB). Residual T and B cells were removed from monocyte fraction by plastic adherence of 3×10^6 cells per well in 6-well plates (Costar) resulting in CD14^+ monocyte populations of >95% purity (determined by flow cytometry). DC were obtained by 6-d culture adherent monocytes in medium with 20 ng/ml IL-4 (5×10^6 units/mg, Peprotech) and 50 ng/ml GM-CSF (1×10^7 units/mg, Peprotech). Cytokines were added again on day 4 in RPMI-1640 medium supplemented with 10% FBS. Following this procedure more than 90% cells belonged to the immature DC phenotype (CD1a^+, HLADRlow, CD14^−, CD83^−, CD86^low, CD80^low). On day 5 cells were treated with nothing or with recombinant human IFN-γ (1000 U/ml) for 18 h before stimulation with NadA (0.0375-5 μM) or LPS (1 μg/ml). After 24 h cells were harvested and analysed. Culture supernatants were collected frozen in liquid nitrogen and conserved at −80° C. for cytokine analysis.
The antibody pairs used, directed against different non-competing epitopes of a given cytokine, were purchased from BioRad. Calibration curves from recombinant cytokine standard were prepared with four-fold dilution steps in RPMI-1640 medium containing 10% FBS. Assays were carried out in 96-well sterile pre-wetted filter plates at room temperature and protected from light. A mixture containing 5000 microspheres per cytokine was incubated together with standard or sample in a final volume of 50 μl for 30 min, under continuous shaking (300 rpm). After three washes by vacuum filtration with Bio-Plex washing buffer a cocktail of biotinylated antibodies diluted in Bio-Plex detection antibody diluent was added (25 μl to each well). After a 30 minutes incubation and washing, Streptavidin-PE diluted in Bio-Plex Assay buffer was added (50 μl per well). At the end of 10 minutes incubation under continuous shaking and after washing the fluorescence intensity of the beads was measured in a final volume of 125 μl of Bio-Plex assay buffer. Data analysis was done with Bio-Plex Manager software using a five-parametric-curve fitting. The detection limits were […].
IL12(p40) was measured by capture enzyme-linked immunosorbent assay (ELISA) with antibody pairs and cytokine standard purchased from Bender MedSystems. The concentrations of IL12(p40) in the cell-free supernatants were determined with ELISA kits according to the manufacturer's instructions. The detection limit of the assays was […].

mo-DCs [10] = test: as above; format: cell-based, human; settings: even after IFN-γ priming; flagellin, LPS 100 μg/ml (so in the source)

NadAΔ351-405 (from UniProt P0DV44 24-350)
Kd [1]: 3000 nM
decrease of the signal with 5 uM unlabelled NadA [1]: -50%
Kd [2]: 50 to 100 nM
fraction of binding sites [2]: 30% and 20%
Kd [3]: 3000 nM and 5000 nM
fraction of binding sites [3]: 70 to 80%
Kd [4]: 90 nM
Kd [5]: 4000 nM
Kd [6]: 1000 nM
decrease of the signal with unlabelled NadA [7]: -50%

flagellin [reference compound]
CD86 expression on co-stimulation with R-848 (mo-DCs [8]; R-848 1 μM, after IFN-γ priming, NadA 1.5 μM): not further increased
CD86 expression (mo-DCs [8]; after IFN-γ priming, CpG up to 10 μg/ml): comparable to that induced by NadA 1.5 μM
CD86 expression (mo-DCs [8]; no IFN-γ priming): significant increase
IL-12(p70) secretion (mo-DCs [9]): comparable to that induced by both 0.25 μM (9 μg/ml) and 1.5 μM (50 μg/ml) NadA
IL-12 secretion with R-848 co-stimulation (mo-DCs [10]): ineffective
